The target of the assay is TGFβ receptor complex of wild type TβRII and kinase-deficient TβRI (KR) (Homo sapiens (Human)) (UniProt P37173). Briefly: anti-Flag IP of [125I]TGFβ affinity-labelled receptors, gamma counting; reference: without Smad2.

As for Flag-tagged hSARA1, the fold enhancement of receptor binding by coexpressed Smad2 stood at 2 fold.

The values above are taken from patent US7105636B1.
